Reference: patent US20160264664A1 (Ablynx, published 2016)

Key:
mouse P2X7 [1] = target: T1, mouse P2X7 (mouse, UniProt Q9Z1M0 1-595); assay: phage ELISA on fixed mP2X7-CHO vs untransfected CHO cells;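 note: phage culture supernatant diluted 10-fold, applied for 1 h to paraformaldehyde-fixed, BSA-blocked cells in 96-well plates, with bound phage read via HRP-linked anti-M13 antibody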
T1 construct: on transfected CHO or Hek293 cells, or endogenous on Yac-1 cells; also called mP2X7; mouse purinoceptor P2X7
T1 sequence: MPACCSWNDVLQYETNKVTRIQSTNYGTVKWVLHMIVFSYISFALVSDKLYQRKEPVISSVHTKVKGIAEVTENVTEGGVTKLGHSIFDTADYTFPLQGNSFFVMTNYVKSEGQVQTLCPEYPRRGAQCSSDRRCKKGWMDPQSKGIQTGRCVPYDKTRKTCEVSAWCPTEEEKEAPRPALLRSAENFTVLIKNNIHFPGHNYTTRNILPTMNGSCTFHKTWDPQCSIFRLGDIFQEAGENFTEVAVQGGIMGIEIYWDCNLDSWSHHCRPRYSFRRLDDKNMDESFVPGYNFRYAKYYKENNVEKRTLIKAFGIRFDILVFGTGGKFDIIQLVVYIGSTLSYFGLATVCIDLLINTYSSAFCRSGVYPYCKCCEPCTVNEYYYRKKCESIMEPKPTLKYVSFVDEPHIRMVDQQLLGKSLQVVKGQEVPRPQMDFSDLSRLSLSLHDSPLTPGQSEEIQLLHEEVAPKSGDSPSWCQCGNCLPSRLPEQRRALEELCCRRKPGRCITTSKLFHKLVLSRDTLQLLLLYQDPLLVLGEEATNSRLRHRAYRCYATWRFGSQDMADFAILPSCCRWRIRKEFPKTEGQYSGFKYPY
Protocol: (§1) Sub-confluent cells were rinsed with PBS and fixed using 4% paraformaldehyde in PBS for 10 minutes at RT. Fixed cells were washed three times with PBS, and blocked with 2% BSA in PBS for 2 hours. Following blocking, 10-fold diluted culture supernatant containing phage was added and incubated for 1 hour. Cell-bound phage was detected via mouse anti-M13-HRP-conjugate (GE Healthcare, Cat nr. E2886). Rat mAb Hano43 was used as positive control.

human P2X4 = target: T2, human P2X4 (human, UniProt Q99571 1-388); assay: flow cytometry, Nanobody pre-incubated with anti-Myc-FITC
T2 construct: whole, on cells; also called hP2X4
T2 sequence (looked up): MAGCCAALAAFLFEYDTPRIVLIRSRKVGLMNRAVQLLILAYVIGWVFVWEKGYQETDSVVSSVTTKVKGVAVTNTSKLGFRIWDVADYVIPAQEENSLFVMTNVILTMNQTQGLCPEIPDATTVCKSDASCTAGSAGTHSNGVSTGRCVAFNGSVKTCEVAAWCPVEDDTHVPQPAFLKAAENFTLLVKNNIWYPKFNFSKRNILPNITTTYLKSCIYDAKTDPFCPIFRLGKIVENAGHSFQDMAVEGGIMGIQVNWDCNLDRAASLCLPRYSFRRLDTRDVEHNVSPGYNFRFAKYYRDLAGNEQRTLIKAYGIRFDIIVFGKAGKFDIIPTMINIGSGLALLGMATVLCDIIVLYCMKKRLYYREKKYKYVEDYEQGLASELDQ

human P2X7 = target: T3, human P2X7 (human, UniProt Q99572 1-595); assay: as above
T3 construct: on transfected Hek293 cells; also called hP2X7
T3 sequence: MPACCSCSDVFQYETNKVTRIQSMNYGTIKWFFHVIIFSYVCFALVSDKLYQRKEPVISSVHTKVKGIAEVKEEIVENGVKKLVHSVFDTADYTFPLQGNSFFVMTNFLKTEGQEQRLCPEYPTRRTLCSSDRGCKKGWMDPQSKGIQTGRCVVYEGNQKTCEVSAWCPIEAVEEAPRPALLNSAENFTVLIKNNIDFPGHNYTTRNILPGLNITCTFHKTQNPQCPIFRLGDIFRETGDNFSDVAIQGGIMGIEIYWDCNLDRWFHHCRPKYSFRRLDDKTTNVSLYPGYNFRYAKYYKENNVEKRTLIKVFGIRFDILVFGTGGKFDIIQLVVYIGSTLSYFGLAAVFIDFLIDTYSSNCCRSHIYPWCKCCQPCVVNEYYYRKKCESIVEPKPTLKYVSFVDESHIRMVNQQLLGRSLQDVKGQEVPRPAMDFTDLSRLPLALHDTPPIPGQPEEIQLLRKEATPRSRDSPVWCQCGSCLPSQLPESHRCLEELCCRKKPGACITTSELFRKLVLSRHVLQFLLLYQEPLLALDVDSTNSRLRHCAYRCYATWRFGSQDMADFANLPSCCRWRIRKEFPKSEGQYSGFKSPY

mouse P2X7 [2] = target: T1, mouse P2X7; assay: phage ELISA, mP2X7-CHO vs control CHO cells
Protocol: as §1

mouse P2X7 [3] = target: T1, mouse P2X7; assay: cell-based or functional assay

B1: P2X7PMP2A6 (VHH)
VHH: EVQLVESGGDVVQAGGSLRLSCLASGFTFDDYAIGWFRQAPGKEREGISCISSTGNVFYADSVKGRFTISSDKEKNTLYLQMNSLEPEDTAVYHCAAGHFTVDSGKVLLRTDISSWGQGTQVTVSS
notes: family 1; on phage or c-myc/His6-tagged in assays
Mouse P2X7 [1]
  Fold Cho P2X7/wt (phage ELISA): 8 fold
Human P2X4
  binding result: no binding (tested: 147 nM)
Human P2X7
  binding result: no binding (tested: 147 nM)

B2: P2X7PMP13G5 (VHH)
VHH: EVQLVESGGGLVQAGGSLRLSCAASDRTFGSSAMGWFRQAPGKDRDFVAAISWSGSSTHYADSVKGRFTISRDNAKNTMYLQMNSLKPADTAVYTCAASRRAYLPAKVGEYDFWGQGTQVTVSS
notes: family 18; on phage or c-myc/His6-tagged in assays
Mouse P2X7 [1]
  Fold Cho P2X7/wt (phage ELISA): 35 fold
Human P2X4
  binding result: no binding (tested: 147 nM)
Human P2X7
  binding result: no binding (tested: 147 nM)

B3: P2X7PMP14F6 (VHH)
VHH: EVQLVESGGGLVQAGGPLRLSCAASGSFFRVNNMAWYRQAPGKQRELVADITRGDRTNYADSVNGRFTISRDNVRNTVYLQMNGLKPEDTAVYYCYARIELGVLEPRDYWGQGTQVTVSS
notes: family 5, 2; on phage or c-myc/His6-tagged in assays
Mouse P2X7 [2]
  absorption ratio (ELISA): 15 ratio

B4: P2X7PMP14F10 (VHH)
VHH: EVQLVESGGGLVQAGGSLRLLCAASGSFFRVNNMAWYRQAPGKQRELVADITRGDRTNYADSVNGRFTISRDNVRNTVYLQMNGLKPEDTAVYSCYARIELGILEPRDYWGQGTQVTVSS
notes: as for B3
Mouse P2X7 [2]
  absorption ratio (ELISA): 19 ratio

B5: P2X7PMP14G11 (VHH)
VHH: EVQLVESGGGLVKPGGSLRLSCAASGSFFRVNNMAWYRQGPGKQRELVADITRGDRTNYADSVNGRFTISRDNVRNTVYLQMNGLKPEDTAVYYCYATIELGVLEPRDYWGQGTQVTVSS
notes: family 5, 3; on phage or c-myc/His6-tagged in assays
Mouse P2X7 [2]
  absorption ratio (ELISA): 30 ratio

B6: P2X7PMP14G4 (VHH)
VHH: EVQLVESGGGLVQAGGSLGLSCAASGNFFRVNTMAWYRQAPGKQRELVADITRGDRTNYADTVNGRFTISRDNVRNTVYLQMNGLKPEDTAAYYCYARIELGVLEPRDYWGQGTQVTVSS
notes: as for B3
Mouse P2X7 [2]
  absorption ratio (ELISA): 34 ratio

B7: P2X7PMP13G9 (VHH)
VHH: EVQLVESGGGLVQAGGSLRLSCVASGRTFSILTMGWFRQAPGKEREFVAAISGIGAIHYADSVKGRFTLSRDNARNTVSLHMNSLKPEDTAVYYCAAKANYESPSRETSYAYWGQGTQVTVSS
notes: family 23; on phage or c-myc/His6-tagged in assays
Mouse P2X7 [1]
  Fold Cho P2X7/wt (phage ELISA): 17 fold
Mouse P2X7 [3]
  ATP IC50 by 2 uM NB (head prints 'mM'; ligand titration at fixed Nanobody, CD62L shedding, Yac-1 cells): 0.469 mM
  IC50 (nM) against 20 uM NAD (CD62L shedding, Yac-1 cells): 136 nM
  IC50 (nM) against 100 uM ATP (CD62L shedding, Yac-1 cells): 35 nM
Human P2X4
  binding result: no binding (tested: 147 nM)
Human P2X7
  binding result: no binding (tested: 147 nM)

B8: P2X7PMP13G4 (VHH)
VHH: EVQLVESGGGLVQAGGSLRLSCAASDRTFGSSTMGWFRQPPGKNREFVATIAWSATTTHYADAVKGRFTVSRDNALNTVYLQMNSLKPEDTAVYYCAATLTWLGIHEYEYNTWGQGTQVTVSS
notes: family 21; on phage or c-myc/His6-tagged in assays
Mouse P2X7 [1]
  Fold Cho P2X7/wt (phage ELISA): 56 fold
Human P2X4
  binding result: no binding (tested: 147 nM)
Human P2X7
  binding result: no binding (tested: 147 nM)

B9: P2X7PMP13B5 (VHH)
VHH: EVQLVESGGGLVQAGDSLRLSCAASGRTFSSYAMGWFRQAPGKEREFVAAISLSGSMTYYADSMKGRFTISRDNAKNTVYLQMNSLKPEDTAVYYCAAEELGDGLGYLAYRYDYWGQGTQVTVSS
notes: family 19; on phage or c-myc/His6-tagged in assays
Mouse P2X7 [1]
  Fold Cho P2X7/wt (phage ELISA): 28 fold
Mouse P2X7 [3]
  ATP IC50 by 2 uM NB (head prints 'mM'; ligand titration at fixed Nanobody, CD62L shedding, Yac-1 cells): 0.2 mM
  IC50 (nM) against 20 uM NAD (CD62L shedding, Yac-1 cells): 3650 nM
  IC50 (nM) against 100 uM ATP (CD62L shedding, Yac-1 cells): 436 nM
Human P2X4
  binding result: no binding (tested: 147 nM)
Human P2X7
  binding result: no binding (tested: 147 nM)

B10: P2X7PMP7G5 (VHH)
VHH: EVQLVESGGGLVQSGGSLRLSCAGSGFSYYIIGWFRQAPGKEREEVSCIRVTDGSTYYTNSVKGRFTMSRDNAENTVYLQMNSLKPEDTAVYSCATECQRWAYPNRIGARGQGTQVTVSS
notes: family 12; on phage or c-myc/His6-tagged in assays
Mouse P2X7 [1]
  Fold Cho P2X7/wt (phage ELISA): 30 fold
Human P2X4
  binding result: no binding (tested: 147 nM)
Human P2X7
  binding result: no binding (tested: 147 nM)

B11: P2X7PMP8C7 (VHH)
VHH: EMQLVESGGGLVQAGGSLRLSCAASGRTFSSLAMGWLRQAPGKEREFVSGISRGGTSTYYADSVKGRFTISRDNAKNTMYLQMNSLKPEDTAVYYCAGSPVLSIVLDTRGLEYWGQGTQVTVSS
notes: family 7; on phage or c-myc/His6-tagged in assays
Mouse P2X7 [1]
  Fold Cho P2X7/wt (phage ELISA): 21 fold
Mouse P2X7 [3]
  IC50 (nM) against 20 uM NAD (CD62L shedding, Yac-1 cells): 4000 nM
  IC50 (nM) against 100 uM ATP (CD62L shedding, Yac-1 cells): 386 nM
Human P2X4
  binding result: no binding (tested: 147 nM)
Human P2X7
  binding result: no binding (tested: 147 nM)

B12: P2X7PMP8E7 (VHH)
VHH: EVQLVESGGGLVQAGGSLRLSCAASGRTFSSLAMGWLRQAPGKEREFVSGISRGGTSTYYADSVKGRFTISRDNAKNTMYLQMNSLKPEDTAVYYCAGSPVLSIVLDTRGLEYWGQGTQVTVSS
notes: as for B11
Mouse P2X7 [1]
  Fold Cho P2X7/wt (phage ELISA): 16 fold
Mouse P2X7 [3]
  IC50 (nM) against 20 uM NAD (CD62L shedding, Yac-1 cells): 4000 nM
  IC50 (nM) against 100 uM ATP (CD62L shedding, Yac-1 cells): 576 nM
Human P2X4
  binding result: no binding (tested: 147 nM)
Human P2X7
  binding result: no binding (tested: 147 nM)

B13: P2X7PMP4B4 (VHH)
VHH: EVQLVESGGGLVQAGGSLRLSCAASGRTVSDYGMGWFRQAPGKLREFVASINWSGIYTRYIDSVEGRFTISRDNTKNTLYLQMNNLKAEDTAVYYCAYFLGPNWYSNYGRPSSYDFYGQGTQVTVSS
notes: family 4; on phage or c-myc/His6-tagged in assays
Mouse P2X7 [1]
  Fold Cho P2X7/wt (phage ELISA): 19 fold
Mouse P2X7 [3]
  ATP IC50 by 2 uM NB (head prints 'mM'; ligand titration at fixed Nanobody, CD62L shedding, Yac-1 cells): 0.047 mM
Human P2X4
  binding result: no binding (tested: 147 nM)
Human P2X7
  binding result: no binding (tested: 147 nM)

B14: P2X7PMP7D6 (VHH)
VHH: EVQLVESGGGLVQAGGSLRLSCAASGRTFGSSPVGWFRQAPGKERDFVATISWNGVDTHYLDSVKGRFTISRDNAKNTVHLQMHILKPEDTALYYCAASTSGSVYLPYRVYQYDSWGQGTQVTVSS
notes: family 8; on phage or c-myc/His6-tagged in assays
Mouse P2X7 [1]
  Fold Cho P2X7/wt (phage ELISA): 18 fold
Human P2X4
  binding result: no binding (tested: 147 nM)
Human P2X7
  binding result: no binding (tested: 147 nM)

B15: P2X7PMP7A4 (VHH)
VHH: EVQLVESGGGLVQAGGSLRVSCAASARTGSYSMGWFRQAPGKEREFVSTISWNGADTVYADSVKGRFTISRDNAKDTVYLQMNSLKPEDTAVYYCAGSITSYVSTWQHDYEYWGQGTQVTVSS
notes: family 9; on phage or c-myc/His6-tagged in assays
Mouse P2X7 [1]
  Fold Cho P2X7/wt (phage ELISA): 32 fold
Human P2X4
  binding result: no binding (tested: 147 nM)
Human P2X7
  binding result: no binding (tested: 147 nM)

B16: P2X7PMP7B4 (VHH)
VHH: EVQLVESGGGLVQAGGSLRLSCAASGRNFGSYTMAWFRQAPGKGREFVSTINWSGGDTDYADSVKGRFTISRDNAKNTVYLQMDSLKPEDTAVYYCAAGLEYMSTIRYTYEYWGQGTQVTVSS
notes: family 10; on phage or c-myc/His6-tagged in assays
Mouse P2X7 [1]
  Fold Cho P2X7/wt (phage ELISA): 23 fold
Human P2X4
  binding result: no binding (tested: 147 nM)
Human P2X7
  binding result: no binding (tested: 147 nM)

B17: P2X7PMP13B8 (VHH)
VHH: EVQLVESGGGLVQPGGSLRLSCAASGLTLTYYNIGWFRQAPGKEREGVSCIDWTDGTTFYADSVKGRFTISTDNAKNTVYLHLNSLEPEDTAVYYCAAGWGRVMTVQHMCADRSLFTSWGQGTQVTVSS
notes: family 13; on phage or c-myc/His6-tagged in assays
Mouse P2X7 [1]
  Fold Cho P2X7/wt (phage ELISA): 24 fold
Human P2X4
  binding result: no binding (tested: 147 nM)
Human P2X7
  binding result: no binding (tested: 147 nM)
